Laboratory results reported in patent publication US10947296B2, “Fusion protein Slit2D2(C386S)-HSA and use thereof in treatment of fibrotic diseases” (SUZHOU THINKING POWER BIOTECHNOLOGY CO., LTD., priority 2016, dated 2021).

Tests used:
Robo1 protein = target: T1, Robo1 protein (Homo sapiens, UniProt Q9Y6N7); assay: Affinity of the fusion protein to receptor Robo1 determined by SPR; assay type: binding; details: Robo1 bound to CM5 chip
T1 construct: purchased ORIGEN TP327713
Description: The affinity constant between the protein and Robo1 protein was detected by SPR (Surface Plasmon resonance BIAcore 200) method. The Robo1 protein (ORIGEN, Art. No.: TP327713) was bound to a CM5 chip, and the interaction between the fusion protein Slit2D2(C386S)-HSA (prepared in Example 1), Slit2D2-HSA (as disclosed in Patent Application PCT/CN2015/092079), and the receptor protein Robo1 were analyzed. Kinetic measurements were performed according to the method referred by Canziani et al. (2004, Anal. Biochem. 325: 301-307). Furthermore, the affinity of the Slit2N protein (Slit2N is a protein having a molecular weight of about 120 kDa at the N-terminus of the Slit2 protein) to Robo1 protein was also determined by the same method.

[1] = Pharmacokinetic assay, single intravenous administration; assay type: in vivo; details: for Plasma drug concentration: IV 2 mg/kg; for AUC(0-t) / AUC(0-∞) / C0 / CL / Cmax / MRT(0-∞) / Tmax / Vss / t1/2: single IV 2 mg/kg
Description: Lines and sources: cynomolgus monkeys, Guangxi Xiongsen Primate Laboratory Animal Breeding Development Co., Ltd.
The test substance was administered in a single dose by intravenous injection.
The blood samples were collected and centrifuged to separate plasma (centrifugation conditions: 8000 rpm, 6 minutes, 2-8° C.). The contents of the label included: the subject number of Medicilon Pharmaceutical Technology (Shanghai) Co., Ltd., relevant test days, serial number of animals, date, and sampling time point. The collected plasma samples were stored in a refrigerator at ≤−65° C. before analysis. After analysis, the remaining plasma samples were stored in the refrigerator at ≤−65° C. for subsequent processing.
The biological sample analysis method and analysis of all samples were performed by the analytical laboratory of Medicilon Pharmaceutical Technology (Shanghai) Co., Ltd. Each plate in the sample analysis must contain a standard curve. At least ¾ of the points and not less than 6 non-zero concentration points (without anchor points) constituting the standard curve should meet the acceptance criteria for method validation. Each plate should also contain at least 2 sets and each set comprised at least 3 quality control samples of different concentration levels (high-concentration quality control, intermediate-concentration quality control, and low-concentration quality control).
The pharmacokinetic parameters were calculated with non-compartmental model using Phoenix pharmacokinetic software: AUC0-t, AUC0-∞, Cmax, t1/2, Tmax, C0, Cl, MRT0-∞ and Vss.

T1 sequence (Q9Y6N7 26-1651): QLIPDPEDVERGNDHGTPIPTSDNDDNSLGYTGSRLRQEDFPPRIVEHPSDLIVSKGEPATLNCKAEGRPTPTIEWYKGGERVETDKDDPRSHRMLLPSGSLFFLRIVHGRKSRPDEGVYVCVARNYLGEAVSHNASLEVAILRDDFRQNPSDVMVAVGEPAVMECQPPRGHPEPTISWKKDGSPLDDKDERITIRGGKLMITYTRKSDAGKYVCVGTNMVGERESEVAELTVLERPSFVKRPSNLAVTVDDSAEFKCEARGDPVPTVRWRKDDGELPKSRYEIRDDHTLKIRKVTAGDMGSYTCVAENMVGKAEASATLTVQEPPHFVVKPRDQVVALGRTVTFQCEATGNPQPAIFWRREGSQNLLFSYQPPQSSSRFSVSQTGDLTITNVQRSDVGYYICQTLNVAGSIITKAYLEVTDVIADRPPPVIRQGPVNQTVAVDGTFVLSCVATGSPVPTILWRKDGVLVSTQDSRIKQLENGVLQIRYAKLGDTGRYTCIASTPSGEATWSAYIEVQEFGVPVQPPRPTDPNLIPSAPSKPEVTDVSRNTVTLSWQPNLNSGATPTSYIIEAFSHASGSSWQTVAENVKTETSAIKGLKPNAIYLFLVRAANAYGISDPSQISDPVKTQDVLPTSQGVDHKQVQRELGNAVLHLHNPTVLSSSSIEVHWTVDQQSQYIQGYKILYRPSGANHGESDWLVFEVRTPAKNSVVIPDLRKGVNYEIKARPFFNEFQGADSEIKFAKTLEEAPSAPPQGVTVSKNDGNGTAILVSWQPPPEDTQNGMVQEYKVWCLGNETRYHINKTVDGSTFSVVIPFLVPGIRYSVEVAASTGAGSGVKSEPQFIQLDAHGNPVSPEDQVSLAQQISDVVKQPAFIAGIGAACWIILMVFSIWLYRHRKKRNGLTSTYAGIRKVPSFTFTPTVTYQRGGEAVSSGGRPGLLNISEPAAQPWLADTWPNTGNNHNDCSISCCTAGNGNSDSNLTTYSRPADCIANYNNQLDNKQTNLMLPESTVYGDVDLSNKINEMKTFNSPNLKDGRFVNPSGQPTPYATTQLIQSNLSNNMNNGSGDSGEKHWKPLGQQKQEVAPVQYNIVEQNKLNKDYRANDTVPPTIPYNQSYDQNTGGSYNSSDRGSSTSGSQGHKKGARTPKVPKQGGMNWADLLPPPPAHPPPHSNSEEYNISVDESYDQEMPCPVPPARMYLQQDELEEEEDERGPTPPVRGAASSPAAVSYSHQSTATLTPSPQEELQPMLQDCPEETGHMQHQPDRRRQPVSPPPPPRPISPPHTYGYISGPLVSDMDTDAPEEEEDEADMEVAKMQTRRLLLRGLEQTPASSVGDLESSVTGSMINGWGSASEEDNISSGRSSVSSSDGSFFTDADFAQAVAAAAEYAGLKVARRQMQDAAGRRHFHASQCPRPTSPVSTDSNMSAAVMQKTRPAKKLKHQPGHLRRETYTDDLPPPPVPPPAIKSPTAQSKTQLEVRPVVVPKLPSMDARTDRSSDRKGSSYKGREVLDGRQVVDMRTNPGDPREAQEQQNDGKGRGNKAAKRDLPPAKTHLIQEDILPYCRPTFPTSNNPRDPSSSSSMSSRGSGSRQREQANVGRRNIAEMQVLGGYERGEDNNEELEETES

Substance: Slit2D2(C386S)-HSA: Fusion protein of the Slit2 D2 domain with C386S mutation linked to human serum albumin; amino acid sequence SEQ ID NO: 3
- Ka (Robo1 protein): 864700 M⁻¹ s⁻¹
- Plasma drug concentration ([1]; 101-Male, day 0.125): 16151.832 ng/mL
- Plasma drug concentration ([1]; 101-Male, day 0.25): 15501.583 ng/mL
- Plasma drug concentration ([1]; 101-Male, day 0.5): 13047.082 ng/mL
- Plasma drug concentration ([1]; 101-Male, day 2): 11326.279 ng/mL
- Plasma drug concentration ([1]; 101-Male, day 5): 6773.314 ng/mL
- Plasma drug concentration ([1]; 101-Male, day 6): 2717.981 ng/mL
- Plasma drug concentration ([1]; 101-Male, day 8): 1577.577 ng/mL
- Plasma drug concentration ([1]; 101-Male, day 11): BLQ (Below the minimum limit of quantitation)
- Plasma drug concentration ([1]; 101-Male, day 14): BLQ (Below the minimum limit of quantitation)
- Plasma drug concentration ([1]; 101-Male, day 17): BLQ (Below the minimum limit of quantitation)
- Plasma drug concentration ([1]; 101-Male, day 19): BLQ (Below the minimum limit of quantitation)
- Plasma drug concentration ([1]; 101-Male, day 22): BLQ (Below the minimum limit of quantitation)
- Plasma drug concentration ([1]; 101-Male, day 26): BLQ (Below the minimum limit of quantitation)
- Plasma drug concentration ([1]; 101-Male, day 29): BLQ (Below the minimum limit of quantitation)
- Plasma drug concentration ([1]; 101-Male, day 36): BLQ (Below the minimum limit of quantitation)
- Plasma drug concentration ([1]; 101-Male, day 43): BLQ (Below the minimum limit of quantitation)
- AUC(0-t) ([1]; 101-Male): 45588.03 ng·days/mL
- AUC(0-∞) ([1]; 101-Male): 50239.09 ng·days/mL
- C0 ([1]; 101-Male): 16829.36 ng/mL
- CL ([1]; 101-Male): 39.81 mL/day/kg
- Cmax ([1]; 101-Male): 16151.83 ng/mL
- MRT(0-∞) ([1]; 101-Male): 2.84 days
- Tmax ([1]; 101-Male): 0.13 days
- Vss ([1]; 101-Male): 113.09 mL/kg
- t1/2 ([1]; 101-Male): 2.04 days
- Plasma drug concentration ([1]; 102-Male, day 0.125): 12629.116 ng/mL
- Plasma drug concentration ([1]; 102-Male, day 0.25): 13612.467 ng/mL
- Plasma drug concentration ([1]; 102-Male, day 0.5): 13169.983 ng/mL
- Plasma drug concentration ([1]; 102-Male, day 2): 8055.924 ng/mL
- Plasma drug concentration ([1]; 102-Male, day 5): 4063.179 ng/mL
- Plasma drug concentration ([1]; 102-Male, day 6): 2215.633 ng/mL
- Plasma drug concentration ([1]; 102-Male, day 8): BLQ (Below the minimum limit of quantitation)
- Plasma drug concentration ([1]; 102-Male, day 11): BLQ (Below the minimum limit of quantitation)
- Plasma drug concentration ([1]; 102-Male, day 14): BLQ (Below the minimum limit of quantitation)
- Plasma drug concentration ([1]; 102-Male, day 17): BLQ (Below the minimum limit of quantitation)
- Plasma drug concentration ([1]; 102-Male, day 19): BLQ (Below the minimum limit of quantitation)
- Plasma drug concentration ([1]; 102-Male, day 22): BLQ (Below the minimum limit of quantitation)
- Plasma drug concentration ([1]; 102-Male, day 26): BLQ (Below the minimum limit of quantitation)
- Plasma drug concentration ([1]; 102-Male, day 29): BLQ (Below the minimum limit of quantitation)
- Plasma drug concentration ([1]; 102-Male, day 36): BLQ (Below the minimum limit of quantitation)
- Plasma drug concentration ([1]; 102-Male, day 43): BLQ (Below the minimum limit of quantitation)
- AUC(0-t) ([1]; 102-Male): 30270.94 ng·days/mL
- AUC(0-∞) ([1]; 102-Male): 37136.49 ng·days/mL
- C0 ([1]; 102-Male): 12629.12 ng/mL
- CL ([1]; 102-Male): 53.86 mL/day/kg
- Cmax ([1]; 102-Male): 13612.47 ng/mL
- MRT(0-∞) ([1]; 102-Male): 2.81 days
- Tmax ([1]; 102-Male): 0.25 days
- Vss ([1]; 102-Male): 151.45 mL/kg
- t1/2 ([1]; 102-Male): 2.15 days
- Plasma drug concentration ([1]; 103-Female, day 0.125): 13162.76 ng/mL
- Plasma drug concentration ([1]; 103-Female, day 0.25): 11266.684 ng/mL
- Plasma drug concentration ([1]; 103-Female, day 0.5): 9508.594 ng/mL
- Plasma drug concentration ([1]; 103-Female, day 2): 5952.269 ng/mL
- Plasma drug concentration ([1]; 103-Female, day 5): 3914.939 ng/mL
- Plasma drug concentration ([1]; 103-Female, day 6): 2155.966 ng/mL
- Plasma drug concentration ([1]; 103-Female, day 8): 731.688 ng/mL
- Plasma drug concentration ([1]; 103-Female, day 11): BLQ (Below the minimum limit of quantitation)
- Plasma drug concentration ([1]; 103-Female, day 14): BLQ (Below the minimum limit of quantitation)
